Values belong to the binder of their own block, whether it stands above or below them. Ends that are not written are not given here.
Experiments:
[1] = target: T1, protein-farnesyltransferase derived from bovine brains (bovine, UniProt P29702 2-375; P49355 1-437); assay: cell-based or functional assay
[2] = target: T1, protein-farnesyltransferase derived …; assay: cell-based or functional assay; remark: listed apart in the source

IC50, protein-farnesyltransferase-inhibiting activity (transfer of [3H]-farnesyl diphosphate to v-Ki-Ras p21) [1]: 9 µM
B1: compound (4) (peptide)
peptide: VYAVTGRGDSPAFGGRIDRI-OH
modifications: not fully specified (bridges); also: cyclic amide Gly alpha-amino to Asp side chain, places unclear

IC50, protein-farnesyltransferase-inhibiting activity (transfer of [3H]-farnesyl diphosphate to v-Ki-Ras p21) [1]: 0.56 µM
IC50, protein-farnesyltransferase inhibiting activity in SPA enzyme assay kit (intake of [3H]-farnesyl diphosphate by biotin-lamin-B peptide) [2]: 0.42 µM
B2: compound (3) (peptide)
peptide: VYAVTGRGDSPASSGCVLS-OH
modifications: not fully specified (bridges); also: cyclic amide Gly alpha-amino to Asp side chain, places unclear

IC50, protein-farnesyltransferase-inhibiting activity (transfer of [3H]-farnesyl diphosphate to v-Ki-Ras p21) [1]: 19 µM
B3: compound (5) (peptide)
peptide: VYAVTGRGDSPAAFGGRIDRIGAA-OH
modifications: not fully specified (bridges); also: cyclic amide Gly alpha-amino to Asp side chain, places unclear
